These results are taken from paper PMC6769022, “Identification of an adhesive interface for the non-clustered δ1 protocadherin-1 involved in respiratory diseases” (Communications Biology, 2019).

Series [1] concerns the molecule itself. Kind of series: bead aggregation assay; Fc fusions from concentrated HEK293T medium bound to protein G Dynabeads, washed; binding buffer 50 mM TrisHCl pH 7.5, 100 mM NaCl, 10 mM KCl, 0.2% BSA with 2 mM CaCl2; 60 min without motion, then 1 and 2 min rocking; aggregates imaged.
Series [2] concerns the molecule itself. Kind of series: crystal structure; vapor diffusion at 4 °C; one molecule in the asymmetric unit, antiparallel dimers formed by crystal symmetry.
Series [3] deals with the molecule itself. Kind of series: AUC; sedimentation velocity, 50,000 r.p.m., 20 °C, 20 mM Tris-HCl pH 8.0, 150 mM KCl, 50 mM NaCl, 2 mM CaCl2; dimer to monomers.

By Kd is commonly meant the concentration at which binding is half-saturated. One may read the stoichiometry N as the number of molecules, sites or subunits per partner or assembly.

B1: PCDH1 EC1-7Fc (Fc fusion, human, UniProt Q08174 58-852, looked up)
chain: TRVVYKVPEEQPPNTLIGSLAADYGFPDVGHLYKLEVGAPYLRVDGKTGDIFTTETSIDREGLRECQNQLPGDPCILEFEVSITDLVQNGSPRLLEGQIEVQDINDNTPNFASPVITLAIPENTNIGSLFPIPLASDRDAGPNGVASYELQAGPEAQELFGLQVAEDQEEKQPQLIVMGNLDRERWDSYDLTIKVQDGGSPPRASSALLRVTVLDTNDNAPKFERPSYEAELSENSPIGHSVIQVKANDSDQGANAEIEYTFHQAPEVVRRLLRLDRNTGLITVQGPVDREDLSTLRFSVLAKDRGTNPKSARAQVVVTVKDMNDNAPTIEIRGIGLVTHQDGMANISEDVAEETAVALVQVSDRDEGENAAVTCVVAGDVPFQLRQASETGSDSKKKYFLQTTTPLDYEKVKDYTIEIVAVDSGNPPLSSTNSLKVQVVDVNDNAPVFTQSVTEVAFPENNKPGEVIAEITASDADSGSNAELVYSLEPEPAAKGLFTISPETGEIQVKTSLDREQRESYELKVVAADRGSPSLQGTATVLVNVLDCNDNDPKFMLSGYNFSVMENMPALSPVGMVTVIDGDKGENAQVQLSVEQDNGDFVIQNGTGTILSSLSFDREQQSTYTFQLKAVDGGVPPRSAYVGVTINVLDENDNAPYITAPSNTSHKLLTPQTRLGETVSQVAAEDFDSGVNAELIYSIAGGNPYGLFQIGSHSGAITLEKEIERRHHGLHRLVVKVSDRGKPPRYGTALVHLYVNETLANRTLLETLLGHSLDTPLDIDIAGDPEYERSKQRGN
notes: Protocadherin-1 (PCDH1), human, repeats EC1 to EC7 (full-length extracellular domain); native signal peptide in the construct; Vector CMV:N1-Fc; Fc detected with anti-human IgG; also called human Protocadherin-1 full-length extracellular domain, Fc-tagged; wild-type PCDH1 EC1-7Fc; source: HEK293T, transfected, secreted into serum-free medium, captured on protein G Dynabeads
For B1, the binding result in series [1] was “binds”.

B2: PCDH1 EC1-7Fc V115R (Fc fusion, human, UniProt Q08174 58-852, looked up)
chain: TRVVYKVPEEQPPNTLIGSLAADYGFPDVGHLYKLEVGAPYLRVDGKTGDIFTTETSIDREGLRECQNQLPGDPCILEFEVSITDLVQNGSPRLLEGQIEVQDINDNTPNFASPRITLAIPENTNIGSLFPIPLASDRDAGPNGVASYELQAGPEAQELFGLQVAEDQEEKQPQLIVMGNLDRERWDSYDLTIKVQDGGSPPRASSALLRVTVLDTNDNAPKFERPSYEAELSENSPIGHSVIQVKANDSDQGANAEIEYTFHQAPEVVRRLLRLDRNTGLITVQGPVDREDLSTLRFSVLAKDRGTNPKSARAQVVVTVKDMNDNAPTIEIRGIGLVTHQDGMANISEDVAEETAVALVQVSDRDEGENAAVTCVVAGDVPFQLRQASETGSDSKKKYFLQTTTPLDYEKVKDYTIEIVAVDSGNPPLSSTNSLKVQVVDVNDNAPVFTQSVTEVAFPENNKPGEVIAEITASDADSGSNAELVYSLEPEPAAKGLFTISPETGEIQVKTSLDREQRESYELKVVAADRGSPSLQGTATVLVNVLDCNDNDPKFMLSGYNFSVMENMPALSPVGMVTVIDGDKGENAQVQLSVEQDNGDFVIQNGTGTILSSLSFDREQQSTYTFQLKAVDGGVPPRSAYVGVTINVLDENDNAPYITAPSNTSHKLLTPQTRLGETVSQVAAEDFDSGVNAELIYSIAGGNPYGLFQIGSHSGAITLEKEIERRHHGLHRLVVKVSDRGKPPRYGTALVHLYVNETLANRTLLETLLGHSLDTPLDIDIAGDPEYERSKQRGN
notes: Protocadherin-1 (PCDH1), human, repeats EC1 to EC7; native signal peptide in the construct; Vector CMV:N1-Fc; source: HEK293T, transfected, secreted into serum-free medium, captured on protein G Dynabeads
Consider B2, for which, in series [1], the binding result is on record as “binds”.

B3: PCDH1 EC1-7Fc C375S C548S (Fc fusion, human, UniProt Q08174 58-852, looked up)
chain: TRVVYKVPEEQPPNTLIGSLAADYGFPDVGHLYKLEVGAPYLRVDGKTGDIFTTETSIDREGLRECQNQLPGDPCILEFEVSITDLVQNGSPRLLEGQIEVQDINDNTPNFASPVITLAIPENTNIGSLFPIPLASDRDAGPNGVASYELQAGPEAQELFGLQVAEDQEEKQPQLIVMGNLDRERWDSYDLTIKVQDGGSPPRASSALLRVTVLDTNDNAPKFERPSYEAELSENSPIGHSVIQVKANDSDQGANAEIEYTFHQAPEVVRRLLRLDRNTGLITVQGPVDREDLSTLRFSVLAKDRGTNPKSARAQVVVTVKDMNDNAPTIEIRGIGLVTHQDGMANISEDVAEETAVALVQVSDRDEGENAAVTSVVAGDVPFQLRQASETGSDSKKKYFLQTTTPLDYEKVKDYTIEIVAVDSGNPPLSSTNSLKVQVVDVNDNAPVFTQSVTEVAFPENNKPGEVIAEITASDADSGSNAELVYSLEPEPAAKGLFTISPETGEIQVKTSLDREQRESYELKVVAADRGSPSLQGTATVLVNVLDSNDNDPKFMLSGYNFSVMENMPALSPVGMVTVIDGDKGENAQVQLSVEQDNGDFVIQNGTGTILSSLSFDREQQSTYTFQLKAVDGGVPPRSAYVGVTINVLDENDNAPYITAPSNTSHKLLTPQTRLGETVSQVAAEDFDSGVNAELIYSIAGGNPYGLFQIGSHSGAITLEKEIERRHHGLHRLVVKVSDRGKPPRYGTALVHLYVNETLANRTLLETLLGHSLDTPLDIDIAGDPEYERSKQRGN
notes: as for B2
For B3, in series [1], the binding result is given as “binds”.

B4: Hs PCDH1 EC1-4bc (domain or fragment, human)
chain: TRVVYKVPEEQPPNTLIGSLAADYGFPDVGHLYKLEVGAPYLRVDGKTGDIFTTETSIDREGLRECQNQLPGDPCILEFEVSITDLVQNGSPRLLEGQIEVQDINDNTPNFASPVITLAIPENTNIGSLFPIPLASDRDAGPNGVASYELQAGPEAQELFGLQVAEDQEEKQPQLIVMGNLDRERWDSYDLTIKVQDGGSPPRASSALLRVTVLDTNDNAPKFERPSYEAELSENSPIGHSVIQVKANDSDQGANAEIEYTFHQAPEVVRRLLRLDRNTGLITVQGPVDREDLSTLRFSVLAKDRGTNPKSARAQVVVTVKDMNDNAPTIEIRGIGLVTHQDGMANISEDVAEETAVALVQVSDRDEGENAAVTCVVAGDVPFQLRQASETGSDSKKKYFLQTTTPLDYEKVKDYTIEIVAVDSGNPPLSSTNSLKVQVVDVNDNA
notes: Protocadherin-1 (PCDH1), human, repeats EC1 to EC4, without signal peptide; also called PCDH1 EC1-4 (bacterially produced, wild type)
In the case of B4, in series [2], the binding result is “binds”.

B5: PCDH1 EC1-4 C375S (domain or fragment, human)
chain: TRVVYKVPEEQPPNTLIGSLAADYGFPDVGHLYKLEVGAPYLRVDGKTGDIFTTETSIDREGLRECQNQLPGDPCILEFEVSITDLVQNGSPRLLEGQIEVQDINDNTPNFASPVITLAIPENTNIGSLFPIPLASDRDAGPNGVASYELQAGPEAQELFGLQVAEDQEEKQPQLIVMGNLDRERWDSYDLTIKVQDGGSPPRASSALLRVTVLDTNDNAPKFERPSYEAELSENSPIGHSVIQVKANDSDQGANAEIEYTFHQAPEVVRRLLRLDRNTGLITVQGPVDREDLSTLRFSVLAKDRGTNPKSARAQVVVTVKDMNDNAPTIEIRGIGLVTHQDGMANISEDVAEETAVALVQVSDRDEGENAAVTSVVAGDVPFQLRQASETGSDSKKKYFLQTTTPLDYEKVKDYTIEIVAVDSGNPPLSSTNSLKVQVVDVNDNA
notes: Protocadherin-1 (PCDH1), human, repeats EC1 to EC4, without signal peptide; Parent (wild-type bacterial EC1-4) is in PDB 6BX7; also called bacterially produced PCDH1 EC1-4 C375S
On to B5, for which, in series [3], the Kd was below 5 µM and the “stoichiometry N” value stood at 2.

B6: Hs PCDH1 EC1-4mc (domain or fragment, human)
chain: TRVVYKVPEEQPPNTLIGSLAADYGFPDVGHLYKLEVGAPYLRVDGKTGDIFTTETSIDREGLRECQNQLPGDPCILEFEVSITDLVQNGSPRLLEGQIEVQDINDNTPNFASPVITLAIPENTNIGSLFPIPLASDRDAGPNGVASYELQAGPEAQELFGLQVAEDQEEKQPQLIVMGNLDRERWDSYDLTIKVQDGGSPPRASSALLRVTVLDTNDNAPKFERPSYEAELSENSPIGHSVIQVKANDSDQGANAEIEYTFHQAPEVVRRLLRLDRNTGLITVQGPVDREDLSTLRFSVLAKDRGTNPKSARAQVVVTVKDMNDNAPTIEIRGIGLVTHQDGMANISEDVAEETAVALVQVSDRDEGENAAVTCVVAGDVPFQLRQASETGSDSKKKYFLQTTTPLDYEKVKDYTIEIVAVDSGNPPLSSTNSLKVQVVDVNDNA
modifications: sugars observed at N248 (N-linked) and S430 (O-linked) in the structure
notes: Protocadherin-1 (PCDH1), human, repeats EC1 to EC4; Vector CMV:N1-His; also called PCDH1 EC1-4His
Consider B6, for which, in series [2], the binding result was “binds”.

B7: PCDH1 EC1-4Fc (Fc fusion, human)
chain: TRVVYKVPEEQPPNTLIGSLAADYGFPDVGHLYKLEVGAPYLRVDGKTGDIFTTETSIDREGLRECQNQLPGDPCILEFEVSITDLVQNGSPRLLEGQIEVQDINDNTPNFASPVITLAIPENTNIGSLFPIPLASDRDAGPNGVASYELQAGPEAQELFGLQVAEDQEEKQPQLIVMGNLDRERWDSYDLTIKVQDGGSPPRASSALLRVTVLDTNDNAPKFERPSYEAELSENSPIGHSVIQVKANDSDQGANAEIEYTFHQAPEVVRRLLRLDRNTGLITVQGPVDREDLSTLRFSVLAKDRGTNPKSARAQVVVTVKDMNDNAPTIEIRGIGLVTHQDGMANISEDVAEETAVALVQVSDRDEGENAAVTCVVAGDVPFQLRQASETGSDSKKKYFLQTTTPLDYEKVKDYTIEIVAVDSGNPPLSSTNSLKVQVVDVNDNA
notes: Protocadherin-1 (PCDH1), human, repeats EC1 to EC4; native signal peptide in the construct; Vector CMV:N1-Fc; PDB 6MGA holds the His-tagged mammalian EC1-4 fragment; source: HEK293T, transfected, secreted into serum-free medium, captured on protein G Dynabeads
B7: the binding result in series [1] is “binds”.

B8: PCDH1 EC1-5 C375S C548S (domain or fragment)
chain: MTRVVYKVPEEQPPNTLIGSLAADYGFPDVGHLYKLEVGAPYLRVDGKTGDIFTTETSIDREGLRECQNQLPGDPCILEFEVSITDLVQNGSPRLLEGQIEVQDINDNTPNFASPVITLAIPENTNIGSLFPIPLASDRDAGPNGVASYELQAGPEAQELFGLQVAEDQEEKQPQLIVMGNLDRERWDSYDLTIKVQDGGSPPRASSALLRVTVLDTNDNAPKFERPSYEAELSENSPIGHSVIQVKANDSDQGANAEIEYTFHQAPEVVRRLLRLDRNTGLITVQGPVDREDLSTLRFSVLAKDRGTNPKSARAQVVVTVKDMNDNAPTIEIRGIGLVTHQDGMANISEDVAEETAVALVQVSDRDEGENAAVTSVVAGDVPFQLRQASETGSDSKKKYFLQTTTPLDYEKVKDYTIEIVAVDSGNPPLSSTNSLKVQVVDVNDNAPVFTQSVTEVAFPENNKPGEVIAEITASDADSGSNAELVYSLEPEPAAKGLFTISPETGEIQVKTSLDREQRESYELKVVAADRGSPSLQGTATVLVNVLDSNDNDLEHHHHHH
Turning to B8, in series [3], the dissociation constant (Kd) is below 5 µM and the “stoichiometry N” value worked out at 2.

B9: PCDH1 EC1-5 C375S C548S V115R (domain or fragment)
chain: MTRVVYKVPEEQPPNTLIGSLAADYGFPDVGHLYKLEVGAPYLRVDGKTGDIFTTETSIDREGLRECQNQLPGDPCILEFEVSITDLVQNGSPRLLEGQIEVQDINDNTPNFASPRITLAIPENTNIGSLFPIPLASDRDAGPNGVASYELQAGPEAQELFGLQVAEDQEEKQPQLIVMGNLDRERWDSYDLTIKVQDGGSPPRASSALLRVTVLDTNDNAPKFERPSYEAELSENSPIGHSVIQVKANDSDQGANAEIEYTFHQAPEVVRRLLRLDRNTGLITVQGPVDREDLSTLRFSVLAKDRGTNPKSARAQVVVTVKDMNDNAPTIEIRGIGLVTHQDGMANISEDVAEETAVALVQVSDRDEGENAAVTSVVAGDVPFQLRQASETGSDSKKKYFLQTTTPLDYEKVKDYTIEIVAVDSGNPPLSSTNSLKVQVVDVNDNAPVFTQSVTEVAFPENNKPGEVIAEITASDADSGSNAELVYSLEPEPAAKGLFTISPETGEIQVKTSLDREQRESYELKVVAADRGSPSLQGTATVLVNVLDSNDNDLEHHHHHH
Turning to B9, the “stoichiometry N” value in series [3] stood at 2.
